Key:
[1] = target: (His)10-p34(37–319) (Helicobacter pylori); experiment: SEC; Superose 6 10/300 GL, in the presence of 2 M urea
[2] = target: (His)10-p34(37–319) (Helicobacter pylori); experiment: SEC; Superose 6 10/300 GL, 0.5 ml/min, in the presence of 10% glycerol; mass from the Kav of the most prominent peak against marker proteins
[3] = target: (His)10-p34(37–319) (Helicobacter pylori); experiment: SEC; in the presence of 4 M urea; Superose 6 10/300 GL for (His)10-p34, Superose 12 10/300 GL (1.0 ml/min) for (His)10-p34ΔN/ΔC; mass against marker proteins
[4] = target: (His)10-p34ΔN/ΔC (p34 residues 37–292 linked to a 10 histidine tag) (Helicobacter pylori); experiment: as above

Substance	stoichiometry N [1] [subunits]	stoichiometry N [2] [subunits]	stoichiometry N [3] [subunits]	stoichiometry N [4] [subunits]
(His)10-p34(37–319) (domain or fragment)	6	6	6	–
(His)10-p34ΔN/ΔC (p34 residues 37–292 linked to a 10 histidine tag) (domain or fragment)	–	–	–	6

Reference: PMC2861713
